Measured values taken from patent US20230227537A1 (VIB VZW, published 2023).
Values joined by “and” are separate entries in the source; they are usually repeats but may differ in a detail not shown here. Equal entries are not always repeated. Where two headings read alike, the source gives them in different places.

Assays:
[1] = molecular target: SARS-CoV-2 spike, full length, on cells or on pseudotyped/authentic virus (SARS-CoV-2, UniProt P0DTC2 14-1273); assay: cell-based or functional assay
[2] = molecular target: T1, Mouse IgG1 Fc fused SARS-CoV-2 RBD (Sino Biological) (SARS-CoV-2; mouse, UniProt P0DTC2 330-518)
[3] = molecular target: T1, Mouse IgG1 Fc fused SARS-CoV-2 RBD …; assay: BLI, RBD-mFc on AMC tips, global 1:1 fit
[4] = molecular target: T1, Mouse IgG1 Fc fused SARS-CoV-2 RBD …; assay: ELISA on coated SARS-CoV-2 RBD-muFc, anti-VHH-HRP, OD450 [lower graph]
BSA [5] = molecular target: T2, BSA (Bos taurus, UniProt P02769); assay: ELISA on coated BSA, anti-VHH-HRP, OD450 [lower graph]
T2 construct: coated on the ELISA plate; also called negative control antigen

[6] = molecular target: SARS-CoV-2 RBD protein Avi-tag biotinylated (AcroBiosystems SPD-C82E9) (SARS-CoV-2, UniProt P0DTC2 330-518); assay: competition AlphaLISA; competitor human ACE2-mFc
[7] = molecular target: T1, Mouse IgG1 Fc fused SARS-CoV-2 RBD …; assay: ELISA on coated SARS-CoV-2 RBD-muFc, anti-VHH-HRP, OD450 [upper graph]
BSA [8] = molecular target: T2, BSA; assay: ELISA on coated BSA, anti-VHH-HRP, OD450 [upper graph]
[9] = molecular target: T3, WT SARS-CoV-2 RBD displayed on Saccharomyces cerevisiae (SARS-CoV-2, UniProt P0DTC2 331-518); assay: flow cytometry, yeast cells displaying WT RBD
[10] = molecular target: T3, WT SARS-CoV-2 RBD displayed on …
[11] = molecular target: T1, Mouse IgG1 Fc fused SARS-CoV-2 RBD …; remark: listed apart in the source

T2 sequence (P02769 25-607 limits assumed): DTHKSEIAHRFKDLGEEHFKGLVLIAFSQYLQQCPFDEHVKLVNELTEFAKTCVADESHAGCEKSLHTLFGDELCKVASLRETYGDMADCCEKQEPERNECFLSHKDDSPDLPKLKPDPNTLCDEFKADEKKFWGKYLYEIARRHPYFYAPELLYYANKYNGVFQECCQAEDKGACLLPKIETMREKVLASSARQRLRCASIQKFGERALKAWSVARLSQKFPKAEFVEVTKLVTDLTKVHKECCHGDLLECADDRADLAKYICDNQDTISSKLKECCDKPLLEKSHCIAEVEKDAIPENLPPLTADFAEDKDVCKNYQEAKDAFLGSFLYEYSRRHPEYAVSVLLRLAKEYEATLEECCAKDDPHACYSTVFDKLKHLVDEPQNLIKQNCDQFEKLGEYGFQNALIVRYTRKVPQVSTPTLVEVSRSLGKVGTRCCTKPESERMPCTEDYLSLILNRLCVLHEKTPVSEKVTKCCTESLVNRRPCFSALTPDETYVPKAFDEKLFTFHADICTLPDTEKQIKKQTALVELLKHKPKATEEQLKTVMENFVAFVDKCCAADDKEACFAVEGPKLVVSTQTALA

B1: D72-16: h1-VHH72-GS-hIgG1hinge-hIgG1Fc (Fc fusion)
chain: EVQLVESGGGLVQPGGSLRLSCAASGRTFSEYAMGWFRQAPGKEREFVATISWSGGSTYYTDSVKGRFTISRDNAKNTVYLQMNSLRPEDTAVYYCAAAGLGTVVSEWDYDYDYWGQGTLVTVSSGS
notes: ExpiCHO
[1]
  IC50, plaque reduction neutralization, authentic SARS-CoV-2: 0.94 µg/mL
[2]
  EC50: 0.00965 µg/mL
[3]
  Kd: 0.102 nM
  koff: 0.000191 s⁻¹
  kon: 1.89e+06 M⁻¹ s⁻¹

B2: D72-02: VHH72-GS-hIgG1hinge-hIgG1Fc (Fc fusion)
chain: QVQLQESGGGLVQAGGSLRLSCAASGRTFSEYAMGWFRQAPGKEREFVATISWSGGSTYYTDSVKGRFTISRDNAKNTVYLQMNSLKPDDTAVYYCAAAGLGTVVSEWDYDYDYWGQGTQVTVSSGS
[1]
  IC50, plaque reduction neutralization, authentic SARS-CoV-2: 1.01 µg/mL
[2]
  EC50: 0.00695 µg/mL
[3]
  Kd: 0.142 nM
  koff: 0.00026 s⁻¹
  kon: 1.83e+06 M⁻¹ s⁻¹

B3: D72-13: VHH72-h1_(G4S)3-VHH72-h1_GS_hIgG1hinge-hIgG1Fc (Fc fusion)
chain: EVQLVESGGGLVQPGGSLRLSCAASGRTFSEYAMGWFRQAPGKEREFVATISWSGGSTYYTDSVKGRFTISRDNAKNTVYLQMNSLRPEDTAVYYCAAAGLGTVVSEWDYDYDYWGQGTLVTVSSGGGGSGGGGSGGGGSEVQLVESGGGLVQPGGSLRLSCAASGRTFSEYAMGWFRQAPGKEREFVATISWSGGSTYYTDSVKGRFTISRDNAKNTVYLQMNSLRPEDTAVYYCAAAGLGTVVSEWDYDYDYWGQGTLVTVSSGS
notes: ExpiCHO; tetravalent
[1]
  PRNT50, authentic SARS-CoV-2: 0.1 µg/mL
[3]
  Kd: < 0.001 nM
  koff: < 1e-07 s⁻¹
  kon: 2.65e+06 M⁻¹ s⁻¹

B4: VHH3.77 (VHH)
VHH: QVQLQESGGGLVQAGGSLRLSCVSSGRAFGNGAVGWFRQGPGRPREFVATVSWNGGGTYFAESVRGRFTISRDNAKNTVYLQMNNLKPEDTAVYYCALAGEGTVVSEWDYDYEYWGQGTQVTVSS
[4]
  EC50 (read off the curve): ~0.03 µg/mL
BSA [5]
  binding result: no binding (tested: about 20 µg/ml)
[6]
  % inhibition: 97%
  IC50: 0.723 nM

B5: VHH3.17 (VHH)
VHH: QVQLQESGGGLVEAGGSLTLSCAASGRAFGDGAVGWFRQGPGRPREFVATVSWNGGGTYFAESVRGRFTISRDNAKNTVYLQMNNLKPEDTAVYYCALAGEGTVVSEWDYDYEYWGQGTQVTVSS
[7]
  EC50 (read off the curve): ~0.05 µg/mL
BSA [8]
  binding result: no binding (tested: about 20 µg/ml)
[6]
  % inhibition: 99%
  IC50: 1.03 nM

B6: VHH3.144 (VHH)
VHH: QVQLQESGGGLVQAGGSLRLSCVASGRAFGNGAVGWFRQAPGREREFVATVSWNGGGTYYAESVRGRFTISRDNAKSTVYLQMNSLKPEDTAVYYCASAGEGTVVSEWDYDYDYWGQGTQVTVSS
BSA [5]
  binding result: no binding (tested: about 20 µg/ml)
[6]
  % inhibition: 100%
  IC50: 1.12 nM

B7: VHH3.29 (VHH)
VHH: QVQLQESGGGLVQAGGSLRLSCVASGRTFSSGGMGWFRQAPGQEREFVAGIGWAGLSSYYLDSVKGRFTISLDNAKNTVYLQMNMLKPEDTGVYYCAADDHGWSAAGMDYLGQGTQVTVSS
[7]
  EC50 (read off the curve): ~0.03 µg/mL
BSA [8]
  binding result: no binding (tested: about 20 µg/ml)
[6]
  % inhibition: 97%
  IC50: 1 nM

B8: VHH3.35 (VHH)
VHH: QVQLQESGGGLVQAGGSLTLSCEVSGRTNDNYGVGWFRQVPGAERELVAAIRWSSISRYYKDSVKGRFTISRDNAKNTVYLQMDMLKAEDTAVYYCAADPAGWSEFGMEYWGKGTQVTVSS
[7]
  EC50 (read off the curve): ~0.04 µg/mL
BSA [8]
  binding result: no binding (tested: about 20 µg/ml)
[6]
  % inhibition: 100%
  IC50: 1.06 nM

B9: VHH3.55 (VHH)
VHH: QVQLQESGGGLVQAGGSLRLSCEVSGRTNDNYGVGWFRQVPGAERELVAAIRWSSISRYYKDSVKGRFTISRDNAKNTVYLQMDMLKPEDTAAYYCAADPAGWSEFGMEYWGKGTQVTVSS
[4]
  EC50 (read off the curve): ~0.01 µg/mL
[9]
  concentration at which binding was just below saturation: 10 ng/mL
BSA [5]
  binding result: no binding (tested: about 20 µg/ml)
[10]
  EC50 (read off the curve): ~0.002 µg/mL
[6]
  % inhibition: 100%
  IC50: 0.817 nM

B10: VHH3.36 (VHH)
VHH: QVQLQESGGGLVQAGDSLRLSCVVSGGTFSSYAMGWFRQAPGKERELVAAINWGGISVYYADSVKGRFTISRDNAENTVYLQMNSLKPEDTAVYYCAADPKGWSEWDMEYWGKGTQVTVSS
[7]
  EC50 (read off the curve): ~0.05 µg/mL
BSA [8]
  binding result: no binding (tested: about 20 µg/ml)
[6]
  % inhibition: 100%
  IC50: 0.562 nM

B11: VHH3.38 (VHH)
VHH: QVQLQESGGGLVQAGGSLRLSCAASGGTFNNYAMAWFRQAPGQERELVAAMFWSGLPKYYADSVKGRFTISTDDAKNTVYLQMNGLKPEDTAVYYCAADSRGWSDVGGMDYWGKGTQVTVSS
[7]
  EC50 (read off the curve): ~0.04 µg/mL
BSA [8]
  binding result: no binding (tested: about 20 µg/ml)
[9]
  concentration at which binding was just below saturation: 10 ng/mL
[10]
  EC50 (read off the curve): ~0.001 µg/mL
[6]
  % inhibition: 99%
  IC50: 2.01 nM

B12: VHH3.47 (VHH)
VHH: QVQLQESGGGLVQAGDSLRLSCAASGHNFSTYAMAWFRQAPGTERELVAAISENDVMRYYADSVKGRFTISRDNAKNMAYLQMNSLKVEDTAVYLCAADPKGWSEWDMDYWGKGTQVTVSS
[4]
  EC50 (read off the curve): ~0.03 µg/mL
[6]
  % inhibition: 100%
  IC50: 0.729 nM

B13: VHH3.115 (VHH)
VHH: QVQLQESGGGLVQTGGSLRLSCAASGLTFSDIAMGWFRQAPGREREFVATISWSGGGTYYAEPVRGRFAISRDNAKNTVYLQMNSLKPEDTAVYYCAAAGAGTVVSEWDYDYDYWGQGTQVTVSS
[4]
  EC50 (read off the curve): ~0.006 µg/mL
BSA [5]
  binding result: no binding (tested: about 20 µg/ml)
[6]
  % inhibition: 100%
  IC50: 1.08 nM

B14: VHH3.149 (VHH)
VHH: QVQLQESGGGLVQAGGSLKLSCAASGRTFSSYALGWFRQAPGTEREFVSAINWFGAPTYYADSVKGRFTISRDNAKNTVYLQMDNLKPEDTAVYYCAADSKGWDPQDMDYWGKGTQVTVSS
[4]
  EC50 (read off the curve): ~0.006 µg/mL
BSA [5]
  binding result: no binding (tested: about 20 µg/ml)
[6]
  % inhibition: 98%
  IC50: 0.902 nM

B15: VHH72 - hIgG1.Hinge-hIgG1.Fc (Fc fusion)
VHH-Fc chain: QVQLQESGGGLVQAGGSLRLSCAASGRTFSEYAMGWFRQAPGKEREFVATISWSGGSTYYTDSVKGRFTISRDNAKNTVYLQMNSLKPDDTAVYYCAAAGLGTVVSEWDYDYDYWGQGTQVTVSS
[11]
  Kd: 0.0874 nM and 0.0895 nM
  koff: 0.000252 s⁻¹ and 0.000288 s⁻¹
  kon: 2.88e+06 M⁻¹ s⁻¹ and 3.22e+06 M⁻¹ s⁻¹

B16: parental VHH72-hIgG1 Fc (P. pastoris supernatant) (Fc fusion)
chain: QVQLQESGGGLVQAGGSLRLSCAASGRTFSEYAMGWFRQAPGKEREFVATISWSGGSTYYTDSVKGRFTISRDNAKNTVYLQMNSLKPDDTAVYYCAAAGLGTVVSEWDYDYDYWGQGTQVTVSS
[11]
  Kd: 0.0786 nM and 0.0765 nM
  koff: 0.000261 s⁻¹ and 0.000283 s⁻¹
  kon: 3.33e+06 M⁻¹ s⁻¹ and 3.7e+06 M⁻¹ s⁻¹

B17: VHH2.50 (VHH)
VHH: QVQLQESGGGLVQAGGSLRLSCAASGRTFSSIAMGWFRQAPGKEREFVATISWSGGSTYYADSVKGRFTISRDNAKNTVYLQMNSLKPEDTAVYYCAAAGLGTVVSEWDYDYDYWGQGTQVTVSS
[6]
  % inhibition: 79%
  IC50: 34.2 nM

B18: VHH3.83 (VHH)
VHH: QVQLQESGGGLVQPGDSLRLSCVLSGGVFTSYAMGWFRQAPGKEREFLAAITFNSDATYYADSVKGRFTISRDNAKNTAYLQMNSLKPNDTAVYSCAAGGNHYNPQYYHDYDKYDHWGQGTQVTVSS
[9]
  concentration at which binding was just below saturation: 10 ng/mL
[10]
  EC50 (read off the curve): ~0.003 µg/mL
[6]
  % inhibition: 74%
  IC50: 0.46 nM

B19: VHH72_h1(S56A) (VHH)
VHH: EVQLVESGGGLVQPGGSLRLSCAASGRTFSEYAMGWFRQAPGKEREFVATISWSGGATYYTDSVKGRFTISRDNAKNTVYLQMNSLRPEDTAVYYCAAAGLGTVVSEWDYDYDYWGQGTLVTVSS
BSA [8]
  binding result: no binding (tested: about 20 µg/ml)

B20: VHH3BE4 (VHH)
VHH: QVQLQESGGGLVQAGGSLRLSCVASGRAFGNGAVGWFRQAPGREREFVATVSWNGGGTYYAESVRGRFTISRDNAKSTVYLQMNSLKPEDTAVYYCASAGEGTVVSEWDYDYDYWGQGTQVTVSS
[6]
  % inhibition: 100%
  IC50: 0.634 nM
